Publication PMC2665295 (Biochemistry, 2008)
Read-outs that look alike come from different tables or passages of the source.

Tests used:
Assay in all cases: ITC
[1] = target: T1, CaMN composed of amino acids 1–75 (UniProt P0DP23 2-76)
[2] = target: T2, CaMC composed of amino acids 76–148 (UniProt P0DP23 77-149)
[3] = target: T3, CaMN composed of amino acids 1–80 (UniProt P0DP23 2-81)
[4] = target: T1, CaMN composed of amino acids 1–75; remark: listed apart in the source
[5] = target: T2, CaMC composed of amino acids 76–148; remark: listed apart in the source
[6] = target: T3, CaMN composed of amino acids 1–80; remark: listed apart in the source
[7] = target: T1, CaMN composed of amino acids 1–75; remark: listed apart in the source
wild-type calmodulin = wild-type calmodulin (UniProt P0DP23 1-149)
[8] = target: T2, CaMC composed of amino acids 76–148; remark: listed apart in the source
[9] = target: T3, CaMN composed of amino acids 1–80; remark: listed apart in the source
[10] = target: T1, CaMN composed of amino acids 1–75; remark: listed apart in the source
[11] = target: T2, CaMC composed of amino acids 76–148; remark: listed apart in the source
[12] = target: T3, CaMN composed of amino acids 1–80; remark: listed apart in the source

Kd [1]: 500 nM | dH [1]: -0.2 kcal/mol | dH1 (binding mode 1) [2]: -7.7 kcal/mol | dH2 (binding mode 2) [2]: 7.6 kcal/mol | dH1 (binding mode 1) [3]: -0.3 kcal/mol | dH2 (binding mode 2) [3]: 2.4 kcal/mol | Kd [4]: 280 nM | dH [4]: 1.9 kcal/mol | dH1 (binding mode 1) [5]: -3.6 kcal/mol | dH2 (binding mode 2) [5]: 6.8 kcal/mol | dH1 (binding mode 1) [6]: 3.9 kcal/mol | dH2 (binding mode 2) [6]: 5.7 kcal/mol | Kd [7]: 360 nM | dH [7]: -2.5 kcal/mol | Kd (wild-type calmodulin): 0.07 pM | dH (wild-type calmodulin): -6.1 kcal/mol | dH1 (binding mode 1) [8]: -11.8 kcal/mol | dH2 (binding mode 2) [8]: 5.4 kcal/mol | dH1 (binding mode 1) [9]: -3.1 kcal/mol | dH2 (binding mode 2) [9]: -3.8 kcal/mol | Kd [10]: 710 nM | dH [10]: -5.1 kcal/mol | dH1 (binding mode 1) [11]: -15.5 kcal/mol | dH2 (binding mode 2) [11]: 1.7 kcal/mol | dH1 (binding mode 1) [12]: -6.5 kcal/mol | dH2 (binding mode 2) [12]: -8.5 kcal/mol
B1: CaMKII(291–312) peptide (peptide)
peptide: Ac-KKFNARRKLKGAILTTMLATRN-NH2
